Measured values reported in patent US20210047373A1, “BETA BARREL POLYPEPTIDES AND METHODS FOR THEIR USE” (UNIVERSITY OF WASHINGTON, priority 2018, published 2021).
Residue numbers refer to the chain shown, from its start. Marks after values point to notes of the source that are not given here.

B1: b11L5F: SEQ ID NO:25; b11 with a 5-residue fifth turn (protein)
chain: MCRAASLLPGTWQVTMTNEDGQTSQGQMHFQPRSPYTLDVKAQGTISDGRPISGKGKVTCKTPDTMDVDITYPSLGNMKVQGQVTLDSPTQFKFDVTTSDGSKVTGTLQRQE
modifications: (1)..(1) optionally absent
B2: b11L5F.1: SEQ ID NO:26; b11L5F triple mutant 83I_95A_103L without disulfide (protein)
chain: B1 chain with C2S, K41V, K55Y, C60V, V84I, V96A, V104L
modifications: (1)..(1) optionally absent
B3: mFAP2.3: SEQ ID NO:58 (protein)
chain: MSRAAQLLPGTWQVTMTNEDGQTSQGQMHFQPRSPYTMDVVAQGTISDGRPIVGYGKVTVKTPDTLDVDITYPSLGNIKAQGQITMDSPTQFKFDATTKGENDFHGRLTGTLQRQE
modifications: (1)..(1) optionally absent
B4: mFAP2.4: SEQ ID NO:59 (protein)
chain: B3 chain with V40I, V58A, E101A, N102G, D103N, H105T
modifications: (1)..(1) optionally absent
B5: mFAP2.5: SEQ ID NO:60; mutations of mFAP2.3 and mFAP2.4 combined (protein)
chain: B3 chain with M28W, V40I, V58A, F94W
modifications: (1)..(1) optionally absent
B6: mFAP1: SEQ ID NO:33; variant of b11L5F.2 (protein)
chain: MSRAAQLLPGTWQTTMTNEDGQTSQGQMHFQPRSPYTLDVVAQGTISDGRPISGYGKVTVKTDDTLDVDITYPSLGNIKVQGQVTMDSPTQFKFDATTSDGKKLTGTLQRQE
modifications: (1)..(1) optionally absent
B7: b32: SEQ ID NO:12; monomeric design, activates DFHBI fluorescence (protein)
chain: MGQEVAQVLPGDWQVHMTNEDGQTSTGTVTFQPRSPYTFDVKFKGTMSDGRPITGKGKMTMKTPDTMDIDVTYSDGKKVTGKVTMKSPTQLDWDLTTSDGSKVTGTSHRQE
modifications: (1)..(1) optionally absent
B8: b11L5F.2: SEQ ID NO:27; second round design from b11L5F.1 (protein)
chain: MNRAAQLLPGTWQVTMTNEDGQTSQGQMHFQPRSPYTLDIVAQGTISDGRPISGYGKVTVKTPDTMHVNITYPSLGNIKVQGQITLDSPTQFTWNSTTSDGKKLTGTLQRQE
modifications: (1)..(1) optionally absent
B9: b11: SEQ ID NO:4; monomeric design with disulfide bond, activates DFHBI fluorescence (protein)
chain: MCRAASLLPGTWQVTMTNEDGQTSQGQMHFQPRSPYTLDVKAQGTMSDGRPIQGKGKVTCKTPDTMDVDITYSDGKQVQGQVTLDSPTQFKFDVTTSDGSKVTGTLQRQE
modifications: (1)..(1) optionally absent

Legend:
[1] = previously reported value, cited from earlier work
[2] = Fluorescence activation / brightness with DFHBI; format: biochemical; settings: for Fluorescence brightness, 100 nM DFHBI / Fluorescence brightness, 10 μM DFHBI: normalized 0 to 1 across all three chromophores, average ± SD of two protein concentrations; for Increase in fluorescence of the phenolate form of DFHBI: pH 7.36, versus mFAP2.2; for Activation of DFHBI fluorescence: monomeric designs
Description: (§1) Fluorescence binding assay. Protein-activated DFHBI fluorescence signals were measured in 96-well plate format (Corning 3650) on a Synergy neo2 plate reader (BioTek, Inc) with λex=450 nm or 460 nm and λem=500 nm or 510 nm. Binding reactions were performed at […] in PBS pH7.4 buffer. Protein concentrations were determined by 280 nm absorbance as described above. DFHBI (Lucerna, Inc) were resuspended in DMSO as instructed to make 100 mM stock and diluted in PBS to 0.5-10 μM. Approximate emission spectra were recorded for active designs from 490 to 600 nm.
(§2) Table 3A-C. Brightness and chromophore affinities of selected mFAP variants. Fluorescence brightness measurements at 10 μM (top table) and 100 nM (middle table) chromophore concentrations were normalized from 0 to 1 across all three chromophores (DFHBI, DFHBI-1T, and DFHO), and the normalized values for two protein concentrations tested for each chromophore at each chromophore concentration were averaged and standard deviations of the average computed. Reported values are the normalized averages and standard deviations of the means for each chromophore concentration and each chromophore. Reported relative densitometry values are the relative densitometry values normalized from 0 to 1 and represent how well each design expresses relative to one another in Lemo21(DE3) E. coli cultures. Thermodynamic dissociation constants (bottom table) are obtained by non-linear least squares fitting of chromophore titrations (n=1) to a single binding site isotherm, and values reported with the standard deviation of the fit. Where the obtained Kd values are below the protein concentration tested, the Kd and standard deviation of the fit are reported in parentheses. Values with “N/D” were not determined.

[3] = Chromophore titration, fit to single binding site isotherm: DFHBI; settings: ± SD of the fit
Description: as §1, §2

[4] = Chromophore titration, fit to single binding site isotherm: DFHBI-1T; settings: n=1 titration; ± SD of the fit; Table 3C
Description: as §2

[5] = Chromophore titration, fit to single binding site isotherm: DFHO; settings: n=1 titration; ± SD of the fit; Table 3C
Description: as §2

[6] = Fluorescence brightness with DFHBI-1T; format: biochemical; settings: normalized 0 to 1 across all three chromophores; average ± SD of two protein concentrations
Description: as §2

[7] = Fluorescence brightness with DFHO; format: biochemical; settings: normalized 0 to 1 across all three chromophores; average ± SD of two protein concentrations
Description: as §2

[8] = Photophysical characterization (absorbance, excitation, emission, extinction coefficient, quantum yield); format: physicochemical
[9] = test system: E. coli, yeast, and mammalian cells; experiment: Confocal imaging of cells expressing mFAPs with DFHBI; format: cell-based; settings: 20 μM DFHBI
Description: To determine whether the designed DFHBI-binding fluorescence-activating proteins function in living cells, we imaged mFAP1- and mFAP2-DFHBI complexes in E. coli, yeast, and mammalian cells by confocal microscopy. […] The quantum yield of mFAP1 and mFAP2 in complex with DFHBI is 2.0% and 2.1% respectively (Table 2).
Confocal image acquisition. Mammalian cell imaging of mFAP1 and mFAP2 was performed in NIH3T3 cells (Flp-In-3T3, Thermo Fisher Scientific, Inc). NIH3T3 cells were cultured in high-glucose DMEM, 4 mM L-glutamine, 10% fetal bovine serum (FBS, Life Technologies, Inc) at 37 degrees Celsius, 5% CO2. Cells were plated at 4×10^4 cells/mL in 35 mm glass-bottomed dishes (Matek, Inc) that were coated with poly-D-lysine. Cells were transfected 24 hours after plating with Lipofectamine™ 3000 (Thermo Fisher Scientific, Inc) at a ratio of 3 μL reagent:1 μL DNA, according to manufacturer's instructions, with […] plasmids of mFAPs or mFAP fusions (1.25 μg mCherry™ plasmid was added to the cytosolic constructs as a transfection control). Right before imaging, cell media was replaced with FluorBrite™ DMEM (Thermo Fisher Scientific, Inc) media supplemented with GlutaMax™ (Thermo Fisher Scientific, Inc) and 10% v/v FBS, and 20 μM DFHBI. […] A white light laser of 488 was used to excite the DFHBI and detected by a HyD detector, over a range of 495-550 nm. […]

[10] = Circular dichroism, thermal and GuHCl denaturation; format: physicochemical; settings: CD
Description: Circular dichroism (CD). Purified protein samples were prepared at 0.5 mg/ml in 20 mM Tris buffer (150 mM NaCl, pH8.0) or PBS buffer (25 mM phosphate, 150 mM NaCl, pH7.4). Wavelength scans from 195 nm to 260 nm were recorded at 25 degrees Celsius, 75 degrees Celsius, 95 degrees Celsius and cooling back to 25 degrees Celsius. Thermal denaturation was monitored at 220 nm or 226 nm from 25 degrees Celsius to 95 degrees Celsius. Near-UV wavelength scan from 240 nm to 320 nm and tryptophan fluorescence emission were recorded in the absence and presence of 5M guanidinium chloride (GuHCl). Chemical denaturation in GuHCl was monitored by both tryptophan fluorescence and near-UV CD signal at 285 nm. The concentration of the GuHCl stock solution was measured with a refractometer (Spectronic Instruments, Inc). Far-UV CD experiments were performed on an AVIV model 420 CD spectrometer (Aviv Biomedical, Inc). Near-UV CD and tryptophan fluorescence experiments were performed on a Jasco J-1500 CD spectrometer (Jasco, Inc). Protein concentrations were determined by 280 nm absorbance with a NanoDrop™spectrophotometer (ThermoScientific, Inc). Melting temperatures were estimated by smoothing the sparse data with a Savitsky-Golay filter of order 3 and approximating the smoothed data with a cubic spline to compute derivatives. Reported Tm values are the inflection points of the melting curves.

[11] = n=1 titration, Table 3C, read-out: DFHBI Kd
[12] = obtained Kd below the protein concentration tested, read-out: DFHBI Kd, fit value in parentheses

Row | Molecule | Kd [3, 11] [µM] | Kd [4] [µM] | Kd [5] [µM] | Fluorescence brightness, 100 nM DFHBI [2] | Fluorescence brightness, 10 μM DFHBI [2] | Fluorescence brightness, 100 nM DFHBI-1T [6] | Fluorescence brightness, 10 μM DFHBI-1T [6] | Fluorescence brightness, 100 nM DFHO [7] | Fluorescence brightness, 10 μM DFHO [7] | further results
1 | CC1=N/C(=C\c2cc(F)c(O)c(F)c2)C(=O)N1CC(F)(F)F [DFHBI-1T] | – | – | – | – | – | – | – | – | – | Extinction Coefficient ([1]; Table 4): 35,400^† M^−1 · cm^−1; λabs ([1]; Table 4): 422^† nm; λem ([1]; Table 4): 495^† nm; λex ([1]; Table 4): 426^† nm; Reported Quantum Yield [1]: 0.00098^†
2 | B1 | – | – | – | – | – | – | – | – | – | Fluorescence activity in comparison with b11 ([2]; 100 μM protein+10 μM DFHBI): 5.2 fold; Increase of fluorescence intensity ([2]; fifth turn changed to a five-residue turn, versus b11): fourfold
3 | B2 | – | – | – | – | – | – | – | – | – | Higher DFHBI fluorescence ([2]; substitutions at V103, V95, V83 of b11L5F): tenfold
4 | B3 | < 0.5 | 1.58 ± 0.34 | 10.4 ± 3.59 | 0.15 ± 0.0 | 0.2 ± 0.03 | 0.52 ± 0.02 | 0.67 ± 0.04 | 0.02 ± 0.0 | 0.01 ± 0.0 | Kd [3, 12]: 0.146 µM; Increase in fluorescence of the phenolate form of DFHBI [2]: ~1.1 fold
5 | B4 | 1.31 ± 0.1 | 38.7 ± 5.71 | 32.7 ± 14.2 | 0.69 ± 0.03 | 0.69 ± 0.06 | 0.01 ± 0.0 | 0.01 ± 0.0 | 0.01 ± 0.0 | 0.0 ± 0.0 | Increase in fluorescence of the phenolate form of DFHBI [2]: ~3.4 fold
6 | B5 | 1.13 ± 0.09 | 52.5 ± 7.48 | 34.2 ± 13.7 | 0.83 ± 0.02 | 0.8 ± 0.03 | 0.01 ± 0.0 | 0.01 ± 0.0 | 0.01 ± 0.0 | 0.0 ± 0.0 | –
7 | B6 | < 0.5 | 10.8 ± 1 | 7.8 ± 2.89 | 0.18 ± 0.0 | 0.13 ± 0.02 | 0.01 ± 0.0 | 0.01 ± 0.0 | 0.01 ± 0.0 | 0.0 ± 0.0 | Quantum yield in complex with DFHBI ([8]; absolute): 2.0%; Kd [3, 12]: 0.496 µM; In vivo fluorescence activation [9]: showed in vivo fluorescence activation
8 | B7 | – | – | – | – | – | – | – | – | – | Thermal stability [10]: undergo reversible thermal melting transitions; Absorption peak with DFHBI bound [8]: 450 nm; Emission peak with DFHBI bound [8]: 510 nm; Activation of DFHBI fluorescence [2]: found to activate DFHBI fluorescence
9 | B8 | – | – | – | – | – | – | – | – | – | Increase of fluorescence, second round of design ([2]; versus b11L5F.1): approximately 1.4 fold
10 | B9 | – | – | – | – | – | – | – | – | – | Thermal stability [10]: undergo reversible thermal melting transitions; Absorption peak with DFHBI bound [8]: 450 nm; Emission peak with DFHBI bound [8]: 510 nm; Activation of DFHBI fluorescence [2]: found to activate DFHBI fluorescence
